Test results as given in patent US20260109758A1 (BIOSION, published 2026).

Assays:
[1] = target: T1, recombinant human TSLP-his (human, UniProt Q969D9 29-159, biotin-labeled in the ELISAs); assay: capture ELISA: antibody captured on anti-human IgG Fc F(ab')2, biotin human TSLP-his, SA-HRP
T1 construct: In-house made; not shown: His tag at the C-terminus
Description: Briefly, 96-well micro plates were coated with 100 μL 2 μg/mL AffiniPure F(ab′)₂ Fragment Goat Anti-Human IgG, Fey fragment specific (Jackson Immuno Research, Cat #109-006-008) in PBS and incubated overnight at 4° C. Plates were washed 4 times with wash buffer (PBS+0.05% Tween-20, PBST) and then blocked with 200 μL/well blocking buffer (5% w/v non-fatty milk in PBST) for 2 hours at 37° C. […] After the final wash, the plates were incubated with 100 μL/well TMB (Innoreagents). The reaction was stopped 15 minutes later at room temperature with 50 μL/well 1M H₂SO₄, and the absorbance of each well was read on a microplate reader using dual wavelength mode with 450 nm for TMB and 630 nm as the reference wavelength. The OD (450-630) values were plotted against antibody concentration. Data was analyzed using Graphpad Prism and EC₅₀ values were reported.

[2] = target: T2, biotin-labeled human TSLP-Fc (human, biotin-labeled); assay: cell-based blocking FACS: antibody pre-mixed with biotin human TSLP-Fc; blocked binding to cell-surface TSLPR/IL7Ra on HEK293T-TSLPR/IL7R/STAT5-Luc 5C5 cells
T2 construct: also called TSLP-Fc protein; TSLP-Fc-biotin

[3] = target: T3, human IL4Rα expressed on 293F-IL4Rα cell surface (human, UniProt P24394 26-825); assay: flow cytometry on 293F-IL4Rα cells, PE anti-human IgG Fc
T3 construct: whole, on cells; also called human IL4Rα-expressing cells; cell surface IL4R

[4] = target: T1, recombinant human TSLP-his; assay: competitive ELISA: antibody pre-mixed with biotin human TSLP-his; blocked binding to coated TSLPR-Fc/IL7Ra-Fc
Description: Briefly, 100 μL human TSLPR-Fc proteins (SEQ ID NO: 34-SEQ ID NO: 38 fusion, prepared in-house) at 1 μg/mL in PBS, and 100 μL human IL7Ra-Fc proteins (SEQ ID NO: 35-SEQ ID NO: 38 fusion, prepared in-house) at 1 μg/mL in PBS were coated on 96-well micro plates overnight at 4° C. The next day, plates were washed with wash buffer (PBS+0.05% Tween-20, PBST), and blocked with 5% w/v non-fatty milk in PBST for 2 hours at 37° C. Plates were then washed again using wash buffer.
After incubation at 37° C. for 40 minutes, plates were washed 4 times using wash buffer. […] Plates were washed again using wash buffer. Finally, TMB was added and the reaction was stopped using 1M H₂SO₄. The absorbance was read on a microplate reader using dual wavelength mode with 450 nm for TMB and 630 nm as the reference wavelength, then the OD (450-630) values were plotted against the antibody concentration. Data was analyzed using Graphpad Prism and IC₅₀ values were reported.

B1: BSI-502-001 (bispecific antibody, human IgG1, kappa)
heavy: EVQLVESGGGLVQPGGSLRLSCAASGFTFSTYGMSWVRQAPGKGLVWVATINSNGGSTSYPDSVKGRFTISRDNAKNTLYLQMNSLRAEDTAVYYCARFFRFRNAMDYWGQGTLVTVSSASTKGPSVFPLAPSSKSTSGGTAALGCLVKDYFPEPVTVSWNSGALTSGVHTFPAVLQSSGLYSLSSVVTVPSSSLGTQTYICNVNHKPSNTKVDKKVEPKSCDKTHTCPPCPAPEAQGGPSVFLFPPKPKDTLYITREPEVTCVVVDVSHEDPEVKFNWYVDGVEVHNAKTKPREEQYNSTYRVVSVLTVLHQDWLNGKEYKCQVSNKALPAPIEKTISKAKGQPREPQVYTLPPSRDELTKNQVSLTCLVKGFYPSDIAVEWESNGQPENNYKTTPPVLDSDGSFFLYSKLTVDKSRWQQGNVFSCSVMHEALHNHYTQKSLSLSPGKGGGGSGGGGSQVQLVQSGAEVKKPGASVKVSCKASGYTFTTYWMHWVRQAPGQGLEWMGVIDPSDSDTTYNQKFKGRVTMTRDTSTSTVYMELSSLRSEDTAVYYCTRSLDGYYDYWGQGTLVTVSSGGGGSGGGGSGGGGSGGGGSDIQMTQSPSSLSASVGDRVTITCRPTENIYSYLAWYQQKPGKAPKLLIYFARTLAEGVPSRFSGSGSGTDFTLTISSLQPEDFATYYCQHHYGTPWTFGGGTKVEIK
light: DIQMTQSPSSLSASVGDRVTITCRTSENIYSYLAWYQQKPGKAPKFLVYNAKTLAEGVPSRFSGSGSGTDFTLTISSLQPEDFATYYCQHYYGPPTWTFGQGTKVEIKRTVAAPSVFIFPPSDEQLKSGTASVVCLLNNFYPREAKVQWKVDNALQSGNSQESVTEQDSKDSTYSLSSTLTLSKADYEKHKVYACEVTHQGLSSPVTKSFNRGEC
notes: huC2C1A1A1-V15 IgG with an anti-TSLP scFv (hu1C5F12E9-V8, VH-VL) at the C-terminus of the heavy chain
**Q.** How did the EC50 [1] turn out when B1 was run?
**A.** Its EC50 is 0.169 nM.

**Q.** What about the IC50 [2] of the same binder?
**A.** The IC50 was 1.73 nM.

**Q.** What about the EC50 [3] of the same binder?
**A.** The EC50 was 0.18 nM.

**Q.** And the IC50 [4]?
**A.** The IC50 was 0.257 nM.

B2: BSI-502-002 (bispecific antibody, human IgG1, kappa)
heavy: EVQLVESGGGLVQPGGSLRLSCAASGFTFSTYGMSWVRQAPGKGLVWVATINSNGGSTSYPDSVKGRFTISRDNAKNTLYLQMNSLRAEDTAVYYCARFFRFRNAMDYWGQGTLVTVSSASTKGPSVFPLAPSSKSTSGGTAALGCLVKDYFPEPVTVSWNSGALTSGVHTFPAVLQSSGLYSLSSVVTVPSSSLGTQTYICNVNHKPSNTKVDKKVEPKSCDKTHTCPPCPAPEAQGGPSVFLFPPKPKDTLYITREPEVTCVVVDVSHEDPEVKFNWYVDGVEVHNAKTKPREEQYNSTYRVVSVLTVLHQDWLNGKEYKCQVSNKALPAPIEKTISKAKGQPREPQVYTLPPSRDELTKNQVSLTCLVKGFYPSDIAVEWESNGQPENNYKTTPPVLDSDGSFFLYSKLTVDKSRWQQGNVFSCSVMHEALHNHYTQKSLSLSPGKGGGGSGGGGSDIQMTQSPSSLSASVGDRVTITCRPTENIYSYLAWYQQKPGKAPKLLIYFARTLAEGVPSRFSGSGSGTDFTLTISSLQPEDFATYYCQHHYGTPWTFGGGTKVEIKGGGGSGGGGSGGGGSGGGGSQVQLVQSGAEVKKPGASVKVSCKASGYTFTTYWMHWVRQAPGQGLEWMGVIDPSDSDTTYNQKFKGRVTMTRDTSTSTVYMELSSLRSEDTAVYYCTRSLDGYYDYWGQGTLVTVSS
light: DIQMTQSPSSLSASVGDRVTITCRTSENIYSYLAWYQQKPGKAPKFLVYNAKTLAEGVPSRFSGSGSGTDFTLTISSLQPEDFATYYCQHYYGPPTWTFGQGTKVEIKRTVAAPSVFIFPPSDEQLKSGTASVVCLLNNFYPREAKVQWKVDNALQSGNSQESVTEQDSKDSTYSLSSTLTLSKADYEKHKVYACEVTHQGLSSPVTKSFNRGEC
notes: huC2C1A1A1-V15 IgG with an anti-TSLP scFv (VL-VH) at the C-terminus of the heavy chain; AQQ and YTE already stand in the entry
**Q.** Which results are given for B2?
**A.** EC50 [1]: 0.369 nM; IC50 [2]: 4.23 nM; EC50 [3]: 0.173 nM; IC50 [4]: 0.758 nM

B3: BSI-502-004 (bispecific antibody, human IgG1, kappa)
heavy: DIQMTQSPSSLSASVGDRVTITCRTSENIYSYLAWYQQKPGKAPKFLVYNAKTLAEGVPSRFSGSGSGTDFTLTISSLQPEDFATYYCQHYYGPPTWTFGQGTKVEIKGGGGSGGGGSGGGGSGGGGSEVQLVESGGGLVQPGGSLRLSCAASGFTFSTYGMSWVRQAPGKGLVWVATINSNGGSTSYPDSVKGRFTISRDNAKNTLYLQMNSLRAEDTAVYYCARFFRFRNAMDYWGQGTLVTVSSGGGGSGGGGSQVQLVQSGAEVKKPGASVKVSCKASGYTFTTYWMHWVRQAPGQGLEWMGVIDPSDSDTTYNQKFKGRVTMTRDTSTSTVYMELSSLRSEDTAVYYCTRSLDGYYDYWGQGTLVTVSSASTKGPSVFPLAPSSKSTSGGTAALGCLVKDYFPEPVTVSWNSGALTSGVHTFPAVLQSSGLYSLSSVVTVPSSSLGTQTYICNVNHKPSNTKVDKKVEPKSCDKTHTCPPCPAPEAQGGPSVFLFPPKPKDTLYITREPEVTCVVVDVSHEDPEVKFNWYVDGVEVHNAKTKPREEQYNSTYRVVSVLTVLHQDWLNGKEYKCQVSNKALPAPIEKTISKAKGQPREPQVYTLPPSRDELTKNQVSLTCLVKGFYPSDIAVEWESNGQPENNYKTTPPVLDSDGSFFLYSKLTVDKSRWQQGNVFSCSVMHEALHNHYTQKSLSLSPG
light: DIQMTQSPSSLSASVGDRVTITCRPTENIYSYLAWYQQKPGKAPKLLIYFARTLAEGVPSRFSGSGSGTDFTLTISSLQPEDFATYYCQHHYGTPWTFGGGTKVEIKRTVAAPSVFIFPPSDEQLKSGTASVVCLLNNFYPREAKVQWKVDNALQSGNSQESVTEQDSKDSTYSLSSTLTLSKADYEKHKVYACEVTHQGLSSPVTKSFNRGEC
notes: hu1C5F12E9-V8 IgG with an anti-IL4R scFv (VL-VH) at the N-terminus of the heavy chain; AQQ and YTE already stand in the entry
**Q.** How did the EC50 [1] turn out when B3 was run?
**A.** The EC50 was 0.103 nM.

**Q.** What about the IC50 [2] of the same binder?
**A.** Its IC50 is 1.31 nM.

**Q.** What about the EC50 [3] of the same binder?
**A.** Its EC50 is 0.169 nM.

**Q.** And the IC50 [4]?
**A.** The IC50 was 0.144 nM.
